31 molecules from patent US20260209362A1 (VIB VZW, published 2026) can be followed below.

Residue numbers refer to the chain shown, from its start.

T1: human IL-12Rβ2 (human, UniProt Q99665 24-862)
T1 construct: Expressed on HEK293T cells transiently transfected with a pcDNA3 plasmid (Genscript clone OHu21785); also called hIL-12RB2; IL-12 receptor β2 subunit
T1 sequence: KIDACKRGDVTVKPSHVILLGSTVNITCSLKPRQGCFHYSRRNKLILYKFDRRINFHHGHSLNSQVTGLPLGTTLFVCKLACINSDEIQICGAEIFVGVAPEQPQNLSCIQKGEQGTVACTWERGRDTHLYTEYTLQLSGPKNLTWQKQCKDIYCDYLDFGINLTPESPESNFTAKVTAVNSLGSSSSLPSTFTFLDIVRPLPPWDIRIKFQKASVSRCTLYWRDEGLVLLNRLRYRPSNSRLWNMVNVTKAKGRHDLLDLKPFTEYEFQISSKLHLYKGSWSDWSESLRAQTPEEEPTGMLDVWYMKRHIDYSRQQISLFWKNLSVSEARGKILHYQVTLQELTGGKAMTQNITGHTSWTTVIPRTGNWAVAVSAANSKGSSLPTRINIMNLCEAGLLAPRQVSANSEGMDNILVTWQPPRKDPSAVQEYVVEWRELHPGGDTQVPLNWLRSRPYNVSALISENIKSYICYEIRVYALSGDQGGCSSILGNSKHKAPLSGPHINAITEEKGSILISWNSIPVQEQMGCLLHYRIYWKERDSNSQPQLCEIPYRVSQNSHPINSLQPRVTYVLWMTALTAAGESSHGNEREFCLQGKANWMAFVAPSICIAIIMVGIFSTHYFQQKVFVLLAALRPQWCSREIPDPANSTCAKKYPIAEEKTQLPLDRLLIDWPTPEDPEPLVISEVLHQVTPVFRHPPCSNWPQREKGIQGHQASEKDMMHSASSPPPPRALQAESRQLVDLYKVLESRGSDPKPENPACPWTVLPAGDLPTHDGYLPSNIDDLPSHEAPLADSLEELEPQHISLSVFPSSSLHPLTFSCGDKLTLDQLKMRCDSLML

B1: anti-IL-12Rβ2 VHH clone 3CAHS39 (VHH, not shown: small tags and cut ends)
VHH: QVQLQESGGGLVQAGGSLRLSCAASGRTINAYIMGWFRQAPGKEREFVAAVSGSGGSTYYADSVKGRFTISRDNAKNTVNLQMDNLRSEDTDVYYCAATYESVYLQNPGQYDYWGQGTQVTVSS
notes: periplasmic extract
B2: anti-IL-12Rβ2 VHH clone 3CAHS53 (VHH, not shown: small tags and cut ends)
VHH: B1 VHH with Q13E, A14P, N74S
notes: periplasmic extract
B3: anti-IL-12Rβ2 VHH clone 3CAHS52 (VHH, not shown: small tags and cut ends)
VHH: B1 VHH with L11S
notes: periplasmic extract
B4: anti-IL-12Rβ2 VHH clone 3CAHS43 (VHH, not shown: small tags and cut ends)
VHH: B1 VHH with L11S, Q106R
notes: periplasmic extract
B5: anti-IL-12Rβ2 VHH clone 3CRHS1 (VHH, not shown: small tags and cut ends)
VHH: QVQLQESGGGSVQPGGSLRLSCAASGFTFSTSGMHWFRQAPGKGLEWVSSIGIIVDSSYYASSVKGRFTISRDNAKNTLYLQMNSLKSEDTAVYYCSKDPTGSSRGQGTQVTVSS
notes: periplasmic extract
B6: anti-IL-12Rβ2 VHH clone 2CRH80 (VHH, not shown: small tags and cut ends)
VHH: B5 VHH with S11L, D56G, Q82H, P100V
notes: periplasmic extract
B7: anti-IL-12Rβ2 VHH clone 3CRH43 (VHH, not shown: small tags and cut ends)
VHH: B5 VHH with T78I, L79V
notes: periplasmic extract
B8: anti-IL-12Rβ2 VHH clone 3CRH45 (VHH, not shown: small tags and cut ends)
VHH: B5 VHH with S11L, S32F, V55D, S57N, P100T
notes: periplasmic extract
B9: anti-IL-12Rβ2 VHH clone 3CRH14 (VHH, not shown: small tags and cut ends)
VHH: B5 VHH with S11L, S62D, Y80F
notes: periplasmic extract
B10: anti-IL-12Rβ2 VHH clone 3CRHS109 (VHH, not shown: small tags and cut ends)
VHH: B5 VHH with S11L, Q82H, P100V
notes: periplasmic extract
B11: anti-IL-12Rβ2 VHH clone 3CRHS128 (VHH, not shown: small tags and cut ends)
VHH: B5 VHH with S11L, I53A, I54T, S57N, Q82L
notes: periplasmic extract
B12: anti-IL-12Rβ2 VHH clone 3CRHS9 (VHH, not shown: small tags and cut ends)
VHH: QVQLQESGGGLVQPGGSLRLSCTASGSIVSIYNMDWYRQAPGNEREWVASITSSGDPYYDGSAKGRFTISRDNAKMTVYLQMNSLKPEDTAVYYCKVPTEKGNYWGQGTQVTVSS
notes: periplasmic extract
B13: anti-IL-12Rβ2 VHH clone 3CRHS100 (VHH, not shown: small tags and cut ends)
VHH: B12 VHH with V29F, E44Q, S53P, G61D
notes: periplasmic extract
B14: anti-IL-12Rβ2 VHH clone 3CRH68 (VHH, not shown: small tags and cut ends)
VHH: B12 VHH with V29L, A40V, E44Q, S53P, A63V, T77M
notes: periplasmic extract
B15: anti-IL-12Rβ2 VHH clone 3CRHS54 (VHH, not shown: small tags and cut ends)
VHH: B12 VHH with K86E, Y94F
notes: periplasmic extract
B16: anti-IL-12Rβ2 VHH clone 3CRH18 (VHH, not shown: small tags and cut ends)
VHH: B12 VHH with S27N, E44Q, K86R
notes: periplasmic extract
B17: anti-IL-12Rβ2 VHH clone 3CRHS148 (VHH, not shown: small tags and cut ends)
VHH: B12 VHH with T23I, V29F, E44Q, S53P, G61D
notes: periplasmic extract
B18: anti-IL-12Rβ2 VHH clone 3CRHS3 (VHH, not shown: small tags and cut ends)
VHH: B12 VHH with V29F, E44Q, G61A, A63V, N73S, V97L
notes: periplasmic extract
B19: anti-IL-12Rβ2 VHH clone 3CRHS55 (VHH, not shown: small tags and cut ends)
VHH: B12 VHH with P14A, R19N, V29I, E44Q, S54N, P57S, K101N
notes: periplasmic extract
B20: anti-IL-12Rβ2 VHH clone 3CRH27 (VHH, not shown: small tags and cut ends)
VHH: B12 VHH with P14A
notes: periplasmic extract
B21: anti-IL-12Rβ2 VHH clone 2CRH33 (VHH, not shown: small tags and cut ends)
VHH: QVQLQESGGGSVQPGWSLRLTCAASGFTFSTSGMHWFRQAPGKGLEWVSSISSGGGDTYYTDSVKGRITISRDNAKNTLYLQLNDLKSEDTAVYYCSKDPSGATRGQGTQVTVSS
notes: periplasmic extract; also called 20363
B22: anti-IL-12Rβ2 VHH clone 2CRH60 (VHH, not shown: small tags and cut ends)
VHH: B21 VHH with W16G
notes: periplasmic extract
B23: anti-IL-12Rβ2 VHH clone 3CRH17 (VHH, not shown: small tags and cut ends)
VHH: QVQLQESGGGLVQAGGSLVLSCAASGSAALIFLMSWYRQAPGKQRELVAEVSRYGSTTYADSVEGRFTISRDNAKNIVDLQMNSLKPEDTAVYYCKADQYYGDSLRSSWGRGTQVTVSS
notes: periplasmic extract
B24: anti-IL-12Rβ2 VHH clone 2CRH53 (VHH, not shown: small tags and cut ends)
VHH: B23 VHH with N76D
notes: periplasmic extract
B25: anti-IL-12Rβ2 VHH clone 3CRH5 (VHH, not shown: small tags and cut ends)
VHH: B23 VHH with Y54G, Y100N, R111Q
notes: periplasmic extract
B26: anti-IL-12Rβ2 VHH clone 3CRHS184 (VHH, not shown: small tags and cut ends)
VHH: B23 VHH with V115L
notes: periplasmic extract
B27: anti-IL-12Rβ2 VHH clone 3CRH67 (VHH, not shown: small tags and cut ends)
VHH: B23 VHH with V92A
notes: periplasmic extract
B28: anti-IL-12Rβ2 VHH clone 2CRH73 (VHH, not shown: small tags and cut ends)
VHH: B23 VHH with V19R, S21T, A23T, Y54R
notes: periplasmic extract
B29: anti-IL-12Rβ2 VHH clone 2CRH10 (VHH, not shown: small tags and cut ends)
VHH: B23 VHH with Y54G, T68H, Y100N
notes: periplasmic extract; also called 20362
B30: anti-IL-12Rβ2 VHH clone 3CRHS2 (VHH, not shown: small tags and cut ends)
VHH: B23 VHH with A14L, V19T
notes: periplasmic extract
B31: anti-IL-12Rβ2 VHH clone 3CRH38 (VHH, not shown: small tags and cut ends)
VHH: B23 VHH with Y54G, Y100N
notes: periplasmic extract

The target in the assay is T1, human IL-12Rβ2. In words: flow cytometry, P.E. on transfected HEK293T cells. On the technique in general: Flow cytometry measures light scatter and fluorescence of single cells or particles in a stream.
For B1, the “% cells bound” value amounted to 39% and the dMFI is 918.

With B2, the “% cells bound” value amounted to 49.3% and the dMFI turned out to be 1460.

B3: the “% cells bound” value is 44.3% and the dMFI was found to be 1110.

Take B4: the “% cells bound” value came out at 47.6% and the dMFI was determined as 1350.

In the case of B5, the “% cells bound” value was 44.5% and the dMFI was 1080.

Regarding B6, the “% cells bound” value was 40.1% and the dMFI amounted to 809.

On to B7, for which the “% cells bound” value was 45.5% and the dMFI came out at 1160.

As to B8, the “% cells bound” value was found to be 37.6% and the dMFI amounted to 742.

B9: the “% cells bound” value came out at 41.7% and the dMFI is 864.

Regarding B10, the “% cells bound” value was 46.5% and the dMFI amounted to 1260.

B11: the “% cells bound” value is 50.5% and the dMFI came to 1480.

As to B12, the “% cells bound” value came to 42.1% and the dMFI amounted to 1040.

Turning to B13, the “% cells bound” value was determined as 43.2% and the dMFI was 1130.

With B14, the “% cells bound” value stood at 38.2% and the dMFI was 787.

B15: the “% cells bound” value was found to be 41.5% and the dMFI was 970.

On to B16, for which the “% cells bound” value worked out at 41.7% and the dMFI stood at 918.

For the molecule B17, the “% cells bound” value was found to be 42% and the dMFI was found to be 1030.

Turning to B18, the “% cells bound” value worked out at 47.2% and the dMFI was determined as 1320.

Take B19: the “% cells bound” value was determined as 40.5% and the dMFI was 961.

In the case of B20, the “% cells bound” value was found to be 38.9% and the dMFI stood at 812.

Turning to B21, the “% cells bound” value was found to be 44.8% and the dMFI came to 1120.

With B22, the “% cells bound” value is 45.3% and the dMFI was 1100.

Regarding B23, the “% cells bound” value is 32.5% and the dMFI worked out at 583.

In the case of B24, the “% cells bound” value was determined as 35.3% and the dMFI was 686.

Take B25: the “% cells bound” value was 39.5% and the dMFI was determined as 835.

As to B26, the “% cells bound” value worked out at 33.3% and the dMFI worked out at 625.

Take B27: the “% cells bound” value came to 35.1% and the dMFI was determined as 645.

For B28, the “% cells bound” value was determined as 36.7% and the dMFI is 707.

Regarding B29, the “% cells bound” value is 30.8% and the dMFI was determined as 595.

B30: the “% cells bound” value worked out at 44.5% and the dMFI was 1150.

B31: the “% cells bound” value came out at 31.8% and the dMFI is 537.
